The numbers were not newly measured in PMC8242001, which cites them from elsewhere.

pKd: −log10 of the molar value.

The target in the series is eIF4E (Saccharomyces cerevisiae) (UniProt P07260). In words: ITC. (In general: ITC needs no label: the signal is the heat of the interaction.)
Chain of UniProt P07260 (P07260 whole entry): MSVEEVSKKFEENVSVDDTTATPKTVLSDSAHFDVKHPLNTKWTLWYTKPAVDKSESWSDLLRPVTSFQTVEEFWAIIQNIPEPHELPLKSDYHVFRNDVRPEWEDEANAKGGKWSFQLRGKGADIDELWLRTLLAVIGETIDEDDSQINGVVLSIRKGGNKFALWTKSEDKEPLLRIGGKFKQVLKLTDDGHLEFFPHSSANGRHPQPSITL

The pKd is −log10 of the Kd, conventionally taken in molar units. As to Caf20 (from UniProt P12962), the pKd was 7.70.
